# Measurements published in paper PMC4899477.
# Target: SV2A (SV2)
# Experiment: SV-PD (synaptic vesicle pull-down) with blocking peptide, immunoblot densitometry
# Conditions: pull down w/ C3WildF (m1), lower value = stronger block of SV capture by the peptide, parent: est. 39, read off a plot
substance,measurement,setting,value
… mimetic blocking peptide (CaV2.2 aa 2319-2328) H1A; Q2A,other: SV2 capture by C3WildF in presence of peptide (% SH3),N = 8,58 % SH3
… mimetic blocking peptide (CaV2.2 aa 2319-2328) V6A; Y10A,other: SV2 capture by C3WildF in presence of peptide (% SH3),N = 8,29 % SH3
… mimetic blocking peptide (CaV2.2 aa 2319-2328) V6G; Y10G,other: SV2 capture by C3WildF in presence of peptide (% SH3),N = 6,44 % SH3
… mimetic blocking peptide (CaV2.2 aa 2319-2328) V6A; P7A; N8A; G9A; Y10A,other: SV2 capture by C3WildF in presence of peptide (% SH3),N = 5,44 % SH3
… mimetic blocking peptide (CaV2.2 aa 2319-2328) V6G; P7A; N8A; G9A; Y10G,other: SV2 capture by C3WildF in presence of peptide (% SH3),N = 6,28 % SH3
… mimetic blocking peptide (CaV2.2 aa 2319-2328) R4A; R5A,other: SV2 capture by C3WildF in presence of peptide (% SH3),N = 3,83 % SH3
… mimetic blocking peptide (CaV2.2 aa 2319-2328) H1G; Q2G; V6A; P7G; N8G; Y10A,other: SV2 capture by C3WildF in presence of peptide (% SH3),N = 8,74 % SH3
… mimetic blocking peptide (CaV2.2 aa 2319-2328) V6A; P7G; N8G; Y10A,other: SV2 capture by C3WildF in presence of peptide (% SH3),N = 7,41 % SH3
… mimetic blocking peptide (CaV2.2 aa 2319-2328) R4G; R5G; V6A; P7G; N8G; Y10A,other: SV2 capture by C3WildF in presence of peptide (% SH3),N = 8,110 % SH3
